Laboratory results published in US20160130577.

What was measured:
Test in all cases: pulldown
Settings in all cases: mass spectrometry
[1] = biological target: HNRPC (hnRNP C) (Homo sapiens) (UniProt P07910)
RS3 (Homo sapiens) = RS3 (Homo sapiens) (UniProt P23396)
hnRNPA2B1 (Homo sapiens) = hnRNPA2B1 (Homo sapiens) (UniProt P22626)
[2] = biological target: NUCL (nucleolin) (Homo sapiens) (UniProt P19338)
RS4X (Homo sapiens) = RS4X (Homo sapiens) (UniProt P62701)
[3] = biological target: HNRPU (hnRNP U) (Homo sapiens) (UniProt Q00839)
Chain of HNRPU (hnRNP U) (Homo sapiens) (Q00839 2-825): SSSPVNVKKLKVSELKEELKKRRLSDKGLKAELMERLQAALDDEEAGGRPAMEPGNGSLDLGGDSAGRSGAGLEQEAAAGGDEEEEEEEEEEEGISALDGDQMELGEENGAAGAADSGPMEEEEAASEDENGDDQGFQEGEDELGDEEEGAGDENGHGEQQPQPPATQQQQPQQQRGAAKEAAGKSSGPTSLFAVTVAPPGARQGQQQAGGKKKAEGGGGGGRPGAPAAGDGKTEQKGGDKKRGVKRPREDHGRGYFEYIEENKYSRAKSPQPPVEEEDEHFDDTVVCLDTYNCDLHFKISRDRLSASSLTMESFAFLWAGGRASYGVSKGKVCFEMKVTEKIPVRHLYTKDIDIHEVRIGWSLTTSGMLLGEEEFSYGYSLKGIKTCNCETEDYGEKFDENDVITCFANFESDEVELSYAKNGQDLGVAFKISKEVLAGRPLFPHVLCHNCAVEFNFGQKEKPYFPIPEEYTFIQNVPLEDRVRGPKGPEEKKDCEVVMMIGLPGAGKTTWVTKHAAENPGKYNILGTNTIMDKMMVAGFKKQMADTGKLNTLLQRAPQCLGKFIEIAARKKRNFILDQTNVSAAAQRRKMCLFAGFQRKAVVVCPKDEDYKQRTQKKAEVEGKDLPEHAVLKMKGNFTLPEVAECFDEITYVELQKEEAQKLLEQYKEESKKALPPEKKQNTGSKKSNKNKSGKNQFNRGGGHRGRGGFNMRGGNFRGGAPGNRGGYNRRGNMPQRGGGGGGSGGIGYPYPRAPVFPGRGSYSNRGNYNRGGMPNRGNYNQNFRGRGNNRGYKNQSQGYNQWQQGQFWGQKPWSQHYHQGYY

hnRNPA1 (Homo sapiens) = hnRNPA1 (Homo sapiens) (UniProt P09651)
Chain of hnRNPA1 (Homo sapiens) (P09651 2-372): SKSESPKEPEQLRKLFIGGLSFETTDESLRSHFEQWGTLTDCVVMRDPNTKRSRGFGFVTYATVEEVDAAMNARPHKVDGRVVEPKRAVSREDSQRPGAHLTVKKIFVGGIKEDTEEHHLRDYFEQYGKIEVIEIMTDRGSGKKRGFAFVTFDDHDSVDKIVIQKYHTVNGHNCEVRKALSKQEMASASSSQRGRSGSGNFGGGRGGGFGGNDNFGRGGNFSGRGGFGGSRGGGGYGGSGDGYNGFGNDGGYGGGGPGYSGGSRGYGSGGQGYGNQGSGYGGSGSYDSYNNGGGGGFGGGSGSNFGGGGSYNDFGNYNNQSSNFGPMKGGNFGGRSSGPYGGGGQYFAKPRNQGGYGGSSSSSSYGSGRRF

Chain of NUCL (nucleolin) (Homo sapiens) (P19338 2-710): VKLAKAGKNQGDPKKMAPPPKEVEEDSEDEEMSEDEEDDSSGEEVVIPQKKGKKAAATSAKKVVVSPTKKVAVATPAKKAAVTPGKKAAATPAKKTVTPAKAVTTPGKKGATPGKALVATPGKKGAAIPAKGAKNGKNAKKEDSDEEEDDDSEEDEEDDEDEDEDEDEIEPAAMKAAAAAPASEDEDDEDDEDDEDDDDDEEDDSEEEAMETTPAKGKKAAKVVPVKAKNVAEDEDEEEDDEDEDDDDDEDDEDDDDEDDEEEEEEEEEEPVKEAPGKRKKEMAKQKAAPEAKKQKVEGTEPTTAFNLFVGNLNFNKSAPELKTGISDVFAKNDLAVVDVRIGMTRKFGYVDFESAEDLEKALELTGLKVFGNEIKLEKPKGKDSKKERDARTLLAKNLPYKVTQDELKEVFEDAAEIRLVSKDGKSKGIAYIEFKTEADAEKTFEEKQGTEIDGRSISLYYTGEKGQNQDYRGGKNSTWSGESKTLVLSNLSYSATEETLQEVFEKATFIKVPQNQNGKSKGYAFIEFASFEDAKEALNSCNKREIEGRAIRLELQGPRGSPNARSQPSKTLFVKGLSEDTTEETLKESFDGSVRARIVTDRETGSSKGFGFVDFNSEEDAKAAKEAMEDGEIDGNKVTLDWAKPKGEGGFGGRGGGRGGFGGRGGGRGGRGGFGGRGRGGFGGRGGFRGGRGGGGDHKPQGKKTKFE
Chain of HNRPC (hnRNP C) (Homo sapiens) (P07910 2-306): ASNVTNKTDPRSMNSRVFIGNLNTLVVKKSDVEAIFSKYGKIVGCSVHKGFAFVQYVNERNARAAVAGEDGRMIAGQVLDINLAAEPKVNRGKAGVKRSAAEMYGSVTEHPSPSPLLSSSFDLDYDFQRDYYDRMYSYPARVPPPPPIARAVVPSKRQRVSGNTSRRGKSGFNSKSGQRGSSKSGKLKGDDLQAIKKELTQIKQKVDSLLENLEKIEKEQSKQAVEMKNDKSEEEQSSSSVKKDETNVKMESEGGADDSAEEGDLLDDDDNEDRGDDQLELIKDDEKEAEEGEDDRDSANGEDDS
Chain of hnRNPA2B1 (Homo sapiens) (P22626 whole entry): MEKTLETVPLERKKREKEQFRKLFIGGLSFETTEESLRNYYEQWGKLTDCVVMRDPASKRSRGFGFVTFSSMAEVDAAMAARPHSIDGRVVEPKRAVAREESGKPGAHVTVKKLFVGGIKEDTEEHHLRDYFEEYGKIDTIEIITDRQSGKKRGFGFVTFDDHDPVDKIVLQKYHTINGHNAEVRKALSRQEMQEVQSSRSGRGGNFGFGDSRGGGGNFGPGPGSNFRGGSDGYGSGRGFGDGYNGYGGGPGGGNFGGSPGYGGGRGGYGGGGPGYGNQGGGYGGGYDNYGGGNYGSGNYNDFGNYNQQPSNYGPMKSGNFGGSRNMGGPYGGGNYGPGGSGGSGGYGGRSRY

Substance | binding [1] [peptides] | binding (RS3 (Homo sapiens)) [peptides] | binding (hnRNPA2B1 (Homo sapiens)) [peptides] | binding ([2]; non-specific) [peptides] | binding (RS4X (Homo sapiens)) [peptides] | binding [3] [peptides] | binding (hnRNPA1 (Homo sapiens)) [peptides] | binding (hnRNPA2B1 (Homo sapiens); streptavidin bead pulldown) [peptides] | binding [2] [peptides]
poly-A | 0 | 0 | 0 | 8 | 0 | 0 | 0 | – | –
miR-198 | 1 | 3 | – | – | 3 | 3 | 2 | 4 | 9
